Columns and labels:
[1] = biological target: human-mouse chimeric PD-L1 on CHO cells (human-mouse chimeric); assay: flow cytometry, CHO-cPD-L1 cells, Anti-human IgG Fc-FITC
[2] = biological target: Mouse PD-L1 on CHO cells (mouse) (UniProt Q9EP73); assay: flow cytometry, CHO-mPD-L1 cells, Anti-mouse-IgGFc-FITC
[3] = biological target: Mouse PD-L1 on CHO cells (mouse) (UniProt Q9EP73); assay: flow cytometry, CHO-mPD-L1 cells, Anti-human IgG Fc-FITC
[4] = biological target: Rhesus monkey PD-L1 on CHO cells (rhesus monkey); assay: flow cytometry, CHO-rmPD-L1 cells, Anti-mouse-IgGFc-FITC
Chain of Rhesus monkey PD-L1 on CHO cells (rhesus monkey) (Q9NZQ7 other isoform, or with tags, fused parts or gaps limits assumed): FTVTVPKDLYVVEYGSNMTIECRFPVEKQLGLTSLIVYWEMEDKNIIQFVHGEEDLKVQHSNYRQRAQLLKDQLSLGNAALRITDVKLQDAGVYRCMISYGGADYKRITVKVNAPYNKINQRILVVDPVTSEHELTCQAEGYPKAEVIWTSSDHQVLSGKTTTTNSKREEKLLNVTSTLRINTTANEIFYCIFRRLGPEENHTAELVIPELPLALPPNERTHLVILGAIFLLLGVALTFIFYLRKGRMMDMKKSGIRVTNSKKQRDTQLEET

[5] = biological target: Rhesus monkey PD-L1 on CHO cells (rhesus monkey); assay: flow cytometry, CHO-rPD-L1 cells, Anti-human IgG Fc-FITC

Chain of Mouse PD-L1 on CHO cells (mouse) (Q9EP73 19-290 limits assumed): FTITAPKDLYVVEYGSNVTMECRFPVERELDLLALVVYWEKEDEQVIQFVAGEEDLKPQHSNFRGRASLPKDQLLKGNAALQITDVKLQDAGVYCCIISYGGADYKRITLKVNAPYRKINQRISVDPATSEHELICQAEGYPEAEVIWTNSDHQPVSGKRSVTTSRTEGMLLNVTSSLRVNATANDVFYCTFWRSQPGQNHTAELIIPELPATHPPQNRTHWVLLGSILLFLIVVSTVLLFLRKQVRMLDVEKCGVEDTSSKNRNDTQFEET
Chain of human-mouse chimeric PD-L1 on CHO cells (human-mouse chimeric) (Q9EP73 other isoform, or with tags, fused parts or gaps mutant limits assumed): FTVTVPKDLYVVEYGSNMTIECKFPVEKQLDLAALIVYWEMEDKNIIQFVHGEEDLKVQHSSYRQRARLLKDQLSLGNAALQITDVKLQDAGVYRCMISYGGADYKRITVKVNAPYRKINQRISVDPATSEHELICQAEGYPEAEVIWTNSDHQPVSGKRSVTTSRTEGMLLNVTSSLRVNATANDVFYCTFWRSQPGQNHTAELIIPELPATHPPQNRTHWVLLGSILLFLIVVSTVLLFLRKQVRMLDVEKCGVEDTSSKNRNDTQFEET

NC
% cells in the FITC-positive gate [1]: 0.779%
% cells in the FITC-positive gate [2]: 5.52%
% cells in the FITC-positive gate [3]: 0.681%
% cells in the FITC-positive gate [4]: 1.13%
% cells in the FITC-positive gate [5]: 2.74%

— patent publication US20220073621A1
